Experiment [1] has as its target microtubules (bovine tubulin, Taxol-stabilised) (bovine) (UniProt Q6B856). The experiment is described as follows: optical trapping, rupture assay.
Experiment [2] has as its target subtilisin-digested microtubules (E-hook removed) (bovine) (UniProt Q6B856). As to the kind of experiment: optical trapping, rupture assay.
For experiment [3], the target named is microtubules (bovine tubulin, Taxol-stabilised) (bovine) (UniProt Q6B856). The experiment is described as follows: optical trapping, unloaded single molecule bead assay with video tracking.

UniProt Q6B856, sequence (Q6B856 whole entry, looked up): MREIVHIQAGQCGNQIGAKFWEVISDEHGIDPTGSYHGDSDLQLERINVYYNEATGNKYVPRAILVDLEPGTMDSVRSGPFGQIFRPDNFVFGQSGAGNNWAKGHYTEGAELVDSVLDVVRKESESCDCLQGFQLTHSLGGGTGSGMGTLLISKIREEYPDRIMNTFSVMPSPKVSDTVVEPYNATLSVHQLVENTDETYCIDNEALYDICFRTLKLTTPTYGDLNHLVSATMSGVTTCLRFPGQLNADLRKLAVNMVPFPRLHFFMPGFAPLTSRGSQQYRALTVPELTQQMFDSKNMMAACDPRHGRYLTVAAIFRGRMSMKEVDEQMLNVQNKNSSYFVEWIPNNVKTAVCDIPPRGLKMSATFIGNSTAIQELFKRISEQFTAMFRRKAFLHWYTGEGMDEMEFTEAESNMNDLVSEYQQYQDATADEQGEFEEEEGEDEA

B1: HSET-ΔM (no motor; EGFP-HSET aa 1-304, tail-stalk) (domain or fragment)
chain: MDPQRSPLLEVKGNIELKRPLIKAPSQLPLSGSRLKRRPDQMEDGLEPEKKRTRGLGATTKITTSHPRVPSLTTVPQTQGQTTAQKVSKKTGPRCSTAIATGLKNQKPVPAVPVQKSGTSGVPPMAGGKKPSKRPAWDLKGQLCDLNAELKRCRERTQTLDQENQQLQDQLRDAQQQVKALGTERTTLEGHLAKVQAQAEQGQQELKNLRACVLELEERLSTQEGLVQELQKKQVELQEERRGLMSQLEEKERRLQTSEAALSSSQAEVASLRQETVAQAALLTEREERLHGLEMERRRLHNQL
In the case of B1, in experiment [1], the bond lifetime (double Gaussian, first population) was 0.29 s; the bond lifetime (double Gaussian, second population) is 1 s; the force at rupture (first population) turned out to be 2.1 pN; the force at rupture (second population) is 5.6 pN. The lifetime time constant k^-1 (single exponential fit) in experiment [1] stood at 0.23 s. The bond lifetime (single Gaussian) in experiment [2] worked out at 0.22 s.

B2: FL-HSET (full-length kinesin-14 HSET/KIFC1) (natural protein)
chain: MDPQRSPLLEVKGNIELKRPLIKAPSQLPLSGSRLKRRPDQMEDGLEPEKKRTRGLGATTKITTSHPRVPSLTTVPQTQGQTTAQKVSKKTGPRCSTAIATGLKNQKPVPAVPVQKSGTSGVPPMAGGKKPSKRPAWDLKGQLCDLNAELKRCRERTQTLDQENQQLQDQLRDAQQQVKALGTERTTLEGHLAKVQAQAEQGQQELKNLRACVLELEERLSTQEGLVQELQKKQVELQEERRGLMSQLEEKERRLQTSEAALSSSQAEVASLRQETVAQAALLTEREERLHGLEMERRRLHNQLQELKGNIRVFCRVRPVLPGEPTPPPGLLLFPSGPGGPSDPPTRLSLSRSDERRGTLSGAPAPPTRHDFSFDRVFPPGSGQDEVFEEIAMLVQSALDGYPVCIFAYGQTGSGKTFTMEGGPGGDPQLEGLIPRALRHLFSVAQELSGQGWTYSFVASYVEIYNETVRDLLATGTRKGQGGECEIRRAGPGSEELTVTNARYVPVSCEKEVDALLHLARQNRAVARTAQNERSSRSHSVFQLQISGEHSSRGLQCGAPLSLVDLAGSERLDPGLALGPGERERLRETQAINSSLSTLGLVIMALSNKESHVPYRNSKLTYLLQNSLGGSAKMLMFVNISPLEENVSESLNSLRFASKVNQCVIGTAQANRK
Regarding B2, the percent of beads binding in experiment [3] was found to be 11%.

Values taken from publication PMC11009875.
